Assay results from patent US20160185837A1, “GIP AND GLP-1 RECEPTOR DUAL-AGONISTS FOR THE TREATMENT OF DIABETES” (Medimmune Limited, priority 2013, published 2016).
Several values for one entry are separate records, joined by “and”; a condition that tells them apart may be missing. Equal entries are not always repeated.

T1: rat GIP receptor (rat) (UniProt P43219)
T1 sequence (looked up): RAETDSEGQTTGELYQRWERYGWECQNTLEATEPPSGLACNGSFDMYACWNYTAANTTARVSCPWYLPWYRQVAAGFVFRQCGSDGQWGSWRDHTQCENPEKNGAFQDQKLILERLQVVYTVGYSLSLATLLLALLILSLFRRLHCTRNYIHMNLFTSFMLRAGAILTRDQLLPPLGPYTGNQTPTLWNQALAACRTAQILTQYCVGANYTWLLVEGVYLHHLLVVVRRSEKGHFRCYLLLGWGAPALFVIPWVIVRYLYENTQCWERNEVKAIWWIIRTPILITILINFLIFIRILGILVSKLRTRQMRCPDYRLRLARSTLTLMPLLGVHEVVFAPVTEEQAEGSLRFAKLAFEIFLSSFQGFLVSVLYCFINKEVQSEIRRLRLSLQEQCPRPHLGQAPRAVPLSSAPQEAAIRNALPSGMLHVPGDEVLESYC

T2: mouse GIP receptor (mouse) (UniProt Q0P543)
T2 sequence (looked up): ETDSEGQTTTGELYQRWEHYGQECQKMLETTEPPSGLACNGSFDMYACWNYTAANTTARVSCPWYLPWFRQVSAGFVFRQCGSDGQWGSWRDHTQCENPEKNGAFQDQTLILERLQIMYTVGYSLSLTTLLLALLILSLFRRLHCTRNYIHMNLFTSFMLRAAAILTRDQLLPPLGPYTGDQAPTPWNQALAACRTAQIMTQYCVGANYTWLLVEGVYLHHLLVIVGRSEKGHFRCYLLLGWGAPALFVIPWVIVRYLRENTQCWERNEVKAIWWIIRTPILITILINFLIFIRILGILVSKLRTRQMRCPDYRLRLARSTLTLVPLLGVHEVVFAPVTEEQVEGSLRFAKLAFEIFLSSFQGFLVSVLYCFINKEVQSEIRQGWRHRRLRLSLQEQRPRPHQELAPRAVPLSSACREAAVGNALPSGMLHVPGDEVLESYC

T3: human GIP receptor (human) (UniProt P48546)
T3 sequence (looked up): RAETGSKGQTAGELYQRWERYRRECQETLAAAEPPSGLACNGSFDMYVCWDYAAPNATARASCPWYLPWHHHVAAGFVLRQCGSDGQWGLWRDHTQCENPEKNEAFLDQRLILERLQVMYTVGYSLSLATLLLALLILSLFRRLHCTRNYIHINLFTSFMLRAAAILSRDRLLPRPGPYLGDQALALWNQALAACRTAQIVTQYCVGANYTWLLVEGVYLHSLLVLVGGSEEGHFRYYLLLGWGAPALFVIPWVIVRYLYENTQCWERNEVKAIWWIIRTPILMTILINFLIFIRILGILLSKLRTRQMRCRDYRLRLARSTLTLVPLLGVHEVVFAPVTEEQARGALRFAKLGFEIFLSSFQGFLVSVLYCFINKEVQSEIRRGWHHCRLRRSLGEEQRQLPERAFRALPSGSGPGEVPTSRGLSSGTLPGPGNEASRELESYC

B1: IP330 (Fc fusion)
chain: YSEGTFTSDYSKLLERQAIDEFIALLLKGGGGGGGSGGGGSGGGGSGGGGSGGGGSGGGGSA
B2: IP331 (Fc fusion)
chain: YSEGTFTSDYSKLLERQAIDEFIADLLKGGGGGGGSGGGGSGGGGSGGGGSGGGGSGGGGSA
B3: IP343 (Fc fusion)
chain: YSEGTFTSDYAAAAERQAIDAFAAWLAAAAGGGGGSGGGGSGGGGSGGGGSA
B4: IP346 (Fc fusion)
chain: YSEGTFTSDYSKLLERQAIDEFIAFLLKGGGGGGGSGGGGSGGGGSGGGGSGGGGSGGGGSA
B5: IP347 (Fc fusion)
chain: YSEGTFTSDYSKLLERQAIDEFIAILLKGGGGGGGSGGGGSGGGGSGGGGSGGGGSGGGGSA
B6: IP348 (Fc fusion)
chain: YSEGTFTSDYSKLLERQAIDEFIASLLKGGGGGGGSGGGGSGGGGSGGGGSGGGGSGGGGSA
B7: IP349 (Fc fusion)
chain: YSEGTFTSDYSKLLERQAIDEFIANLLKGGGGGGGSGGGGSGGGGSGGGGSGGGGSGGGGSA
B8: IP350 (Fc fusion)
chain: YSEGTFTSDYSKLLERQAIDEFIAGLLKGGGGGGGSGGGGSGGGGSGGGGSGGGGSGGGGSA
B9: IP352 (Fc fusion)
chain: YSEGTFTSDYSKLLERQAIDEFIAMLLKGEGGGGGSGGGGSGGGGSGGGGSGGGGSGGGGSA
B10: IP364 (Fc fusion)
chain: YSEGTFTSDFSKLLERQAIDEFIAWLLKGGAAAGGSGSTASSGSGSATGGGGAATHTCPPC
B11: IP366 (Fc fusion)
chain: YSEGTFTSDYRMLKERQAIDEFIAWLLKGGAAAGGSGSTASSGSGSATGGGGAATHTCPPC
B12: IP367 (Fc fusion)
chain: YSEGTFTSDYRILKERQAIDEFIAWLLKGGAAAGGSGSTASSGSGSATGGGGAATHTCPPC
B13: IP368 (Fc fusion)
chain: YSEGTFTSDYRQAIDRQAIDEFIAWLLKGGGGGGGSGGGGSGGGGSGGGGSACPPC
B14: IP369 (Fc fusion)
chain: YSEGTFTSDYSKLLERQAIDEFIAHLLKGGGGGGGSGGGGSGGGGSGGGGSGGGGSGGGGSA
B15: IP373 (Fc fusion)
chain: YSEGTHTSDFSKLLERQAIDEFIAWLLKGGAAAGGSGSTASSGSGSATGGGGAATHTCPPC
B16: IP375 (Fc fusion)
chain: YSEGTHTSLFSKLLERQAIDEFIAWLLKGGAAAGGSGSTASSGSGSATGGGGAATHTCPPC
B17: IP226 (Fc fusion)
chain: YSEGTFTSDVSKLLERQAIDEFIAWLLKGGAAAGGSGSTASSGSGSATGGGGAATHTCPPCPAPEF
B18: IP250 (Fc fusion)
chain: YSEGTFTSDVSIAMDRQAIDEFIAWLLKGGAAAGGSGSTASSGSGSATGGGGAATHTCPPCPAPEF
B19: IP223 (Fc fusion)
chain: YSEGTFTSDVSSYMEEEAIDEFIAWLLKGGAAAGGSGSTASSGSGSATGGGGAATHTCPPCPAPEF
B20: IP018 (Fc fusion)
chain: YSEGTFISDYSIAMDKIHQQDFVNWLLAQKAAAGGSGSTASSGSGSATGGGGAATHTCPPCPAPEF
B21: IP413 (Fc fusion)
chain: YSEGTFTSDYSKLLEEEASRLFIEWLLAGGGGGGSGGGGSGGGGSGGGGSATHTCPPC

What was measured:
Assay in all cases: cell-based or functional assay
[1] = target: human GLP-1 receptor (human) (UniProt P43220)
[2] = target: human glucagon receptor (human) (UniProt P47871)
rat GLP-1 receptor (rat) = rat GLP-1 receptor (rat) (UniProt P32301)
rat GIP receptor (rat) = target: T1, rat GIP receptor (rat)
[3] = target: mouse GLP-1 receptor (mouse) (UniProt O35659)
[4] = target: T2, mouse GIP receptor (mouse)
[5] = target: T3, human GIP receptor (human)

human glucagon receptor (human), sequence (P47871 26-477): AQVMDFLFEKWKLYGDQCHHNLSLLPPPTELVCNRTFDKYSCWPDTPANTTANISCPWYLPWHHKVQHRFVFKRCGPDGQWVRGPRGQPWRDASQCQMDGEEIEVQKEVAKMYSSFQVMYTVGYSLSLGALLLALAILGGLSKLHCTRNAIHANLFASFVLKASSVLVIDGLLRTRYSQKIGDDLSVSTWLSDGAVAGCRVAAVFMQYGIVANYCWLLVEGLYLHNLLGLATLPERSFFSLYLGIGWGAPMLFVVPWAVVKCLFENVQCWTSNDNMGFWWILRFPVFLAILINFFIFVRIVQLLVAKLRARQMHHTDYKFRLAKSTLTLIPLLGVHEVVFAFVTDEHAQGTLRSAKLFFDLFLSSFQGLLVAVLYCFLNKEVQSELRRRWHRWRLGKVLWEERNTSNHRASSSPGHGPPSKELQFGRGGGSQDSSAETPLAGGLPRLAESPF
rat GLP-1 receptor (rat), sequence (P32301 22-463): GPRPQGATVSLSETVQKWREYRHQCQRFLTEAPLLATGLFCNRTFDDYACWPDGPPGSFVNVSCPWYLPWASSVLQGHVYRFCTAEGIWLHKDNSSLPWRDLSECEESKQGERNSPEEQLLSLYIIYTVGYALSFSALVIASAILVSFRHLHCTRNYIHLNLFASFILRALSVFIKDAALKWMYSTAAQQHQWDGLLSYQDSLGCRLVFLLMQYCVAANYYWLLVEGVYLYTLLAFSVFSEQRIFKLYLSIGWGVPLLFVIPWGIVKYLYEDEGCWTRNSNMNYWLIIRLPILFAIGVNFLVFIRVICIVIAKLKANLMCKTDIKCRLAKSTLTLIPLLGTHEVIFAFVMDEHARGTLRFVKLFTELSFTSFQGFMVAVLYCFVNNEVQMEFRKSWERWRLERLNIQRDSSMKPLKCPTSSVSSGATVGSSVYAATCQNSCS
human GLP-1 receptor (human), sequence (P43220 24-463): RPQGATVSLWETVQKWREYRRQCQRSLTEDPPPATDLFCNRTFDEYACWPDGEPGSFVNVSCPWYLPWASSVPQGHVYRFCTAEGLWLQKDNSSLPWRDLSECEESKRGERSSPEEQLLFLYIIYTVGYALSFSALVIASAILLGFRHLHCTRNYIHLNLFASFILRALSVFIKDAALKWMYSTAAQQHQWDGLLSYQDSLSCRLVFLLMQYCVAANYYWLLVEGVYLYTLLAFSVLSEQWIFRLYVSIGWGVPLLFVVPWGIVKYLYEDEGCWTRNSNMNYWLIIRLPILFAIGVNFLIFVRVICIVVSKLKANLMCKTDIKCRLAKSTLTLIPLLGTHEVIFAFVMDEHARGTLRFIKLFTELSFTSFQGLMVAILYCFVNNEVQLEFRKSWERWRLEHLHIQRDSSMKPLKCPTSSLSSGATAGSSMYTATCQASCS
mouse GLP-1 receptor (mouse), sequence (O35659 22-463): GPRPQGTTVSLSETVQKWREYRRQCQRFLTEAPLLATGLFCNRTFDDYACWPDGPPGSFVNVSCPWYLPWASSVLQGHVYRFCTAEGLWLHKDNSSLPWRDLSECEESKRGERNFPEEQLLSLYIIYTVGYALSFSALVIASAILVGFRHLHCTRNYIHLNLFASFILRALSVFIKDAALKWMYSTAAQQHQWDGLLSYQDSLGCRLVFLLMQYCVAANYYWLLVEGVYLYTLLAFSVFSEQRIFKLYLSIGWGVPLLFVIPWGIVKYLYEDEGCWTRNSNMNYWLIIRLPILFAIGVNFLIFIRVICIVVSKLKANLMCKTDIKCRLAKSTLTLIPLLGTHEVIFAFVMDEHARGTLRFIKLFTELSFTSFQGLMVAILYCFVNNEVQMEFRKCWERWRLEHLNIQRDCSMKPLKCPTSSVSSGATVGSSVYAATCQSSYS

Row | cAMP EC50 [1] | cAMP EC50 [2] | cAMP EC50 (rat GLP-1 receptor (rat)) | cAMP EC50 (rat GIP receptor (rat)) | cAMP EC50 [3] | cAMP EC50 [4] | cAMP EC50 [5] | cAMP EC50, hGIPr (C3) line [5] | cAMP EC50, Batch 2 [1] | cAMP EC50, Batch 3 [1] | cAMP EC50, Batch 2 [2] | cAMP EC50, Batch 3 [2] | cAMP EC50, Batch 1 (rat GIP receptor (rat)) | cAMP EC50, Batch 1 [4] | cAMP EC50, Batch 1 [5] | cAMP EC50, Batch 2 [5] | cAMP EC50, Batch 3 [5] | Binder
1 | 0.66 nM | 1100 nM | 0.089 nM | 0.023 nM | 5.5 nM | 0.45 nM | 0.009 nM |  |  |  |  |  |  |  |  |  |  | B1
2 | 2.6 nM | > 1950 nM | 0.31 nM | 0.06 nM | 22 nM | 4 nM | 0.013 nM |  |  |  |  |  |  |  |  |  |  | B2
3 | 960 nM | > 2070 nM | 360 nM | 110 nM | > 2070 nM | 880 nM | 72 nM |  |  |  |  |  |  |  |  |  |  | B3
4 | 0.08 nM | 180 nM | 0.017 nM | 0.01 nM | 0.29 nM | 0.16 nM | 0.011 nM | 0.16 nM |  |  |  |  |  |  |  |  |  | B4
5 | 0.75 nM | > 1490 nM | 0.087 nM | 0.024 nM | 2.5 nM | 0.85 nM | 0.013 nM |  |  |  |  |  |  |  |  |  |  | B5
6 | 0.29 nM | > 907 nM | 0.037 nM | 0.024 nM | 0.89 nM | 1.4 nM | 0.011 nM |  |  |  |  |  |  |  |  |  |  | B6
7 | 0.16 nM | 1200 nM | 0.059 nM | 0.014 nM | 0.86 nM | 0.55 nM | 0.0079 nM |  |  |  |  |  |  |  |  |  |  | B7
8 | 0.86 nM | > 1360 nM | 0.21 nM | 0.024 nM | 2.7 nM | 1.3 nM | 0.013 nM |  |  |  |  |  |  |  |  |  |  | B8
9 | 0.13 nM | 620 nM | 0.0076 nM | 0.0089 nM | 3.6 nM | 0.52 nM | 0.0069 nM |  |  |  |  |  |  |  |  |  |  | B9
10 | 0.18 nM | 610 nM | 0.058 nM | 0.02 nM | 0.69 nM | 0.5 nM | 0.0085 nM |  |  |  |  |  |  |  |  |  |  | B10
11 | 6.1 nM | > 10200 nM | 14 nM | 0.016 nM | 100 nM | 0.056 nM | 0.14 nM |  |  |  |  |  |  |  |  |  |  | B11
12 | 4.4 nM | > 1300 nM | 8 nM | 0.0099 nM | 390 nM | 0.031 nM | 0.057 nM | 13 nM |  |  |  |  |  |  |  |  |  | B12
13 | 230 nM | > 4860 nM | 370 nM | 0.22 nM | > 4860 nM | 1.3 nM | 0.2 nM |  |  |  |  |  |  |  |  |  |  | B13
14 | 0.071 nM | 710 nM | 0.023 nM | 0.02 nM | 0.27 nM | 0.68 nM | 0.0089 nM |  |  |  |  |  |  |  |  |  |  | B14
15 | 0.72 nM | > 6790 nM | 0.9 nM | 0.035 nM | 9.2 nM | 3.2 nM | 0.0054 nM |  |  |  |  |  |  |  |  |  |  | B15
16 | 4 nM | > 11700 nM | 3.9 nM | 0.07 nM | 49 nM | 0.65 nM | 0.078 nM |  |  |  |  |  |  |  |  |  |  | B16
17 | 0.2 nM |  | 0.061 nM | 0.27 nM | 1 nM | 7.5 nM | 0.025 nM |  |  |  |  |  |  |  |  |  |  | B17
18 | 1.1 nM |  | 2.2 nM | 5.3 nM | 22 nM | 35 nM | 0.11 nM |  |  |  |  |  |  |  |  |  |  | B18
19 | 16 nM |  | 18 nM | 72 nM | 80 nM |  | 2.5 nM |  |  |  |  |  |  |  |  |  |  | B19
20 | > 317 nM | > 317 nM |  |  |  |  |  | 0.8 nM | 4200 nM | > 6350 nM | 480 nM | 720 nM | 0.0076 nM | 0.022 nM | 0.0026 nM | 0.0051 nM and 0.0093 nM | 0.0064 nM | B20
21 | 0.19 nM | 7.6 nM | 0.048 nM | > 113 nM | 8.9 nM | 3.7 nM |  |  |  |  |  |  |  |  |  |  |  | B21
